Experiment: yeast display, Sf9 membrane polyspecificity reagent, FACS + sequencing; frameworks hold sequencing errors
How it was run: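 Nanobodies from a synthetic yeast display library (Saccharomyces cerevisiae BJ5465), induced 36–48 hours with galactose, were stained 1 hour at 4 °C with 10% biotinylated, detergent-solubilized Sf9 membrane reagent, enriched on streptavidin microbeads, then FACS-sorted. Anti-HA (expression) and streptavidin (reagent binding) fluorescence set low and high (top ~1%) gates. Polyreactivity labels come from the gate of origin. Genes were colony-PCR amplified, MiSeq 2 × 250 sequenced and filtered by CDR length.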

Sequence	polyreactivity (PSR sort gate)
QVQLVESGGGLVQAGGSLRLSCAASGRIFWDNAMGWYRQAAGKEWELVAAISDSVVITYYADSVKGRFTISRDNAKNTVYLQMNSLKPEDTAVYYCAADKRGTVYLSSLWMDYWGQGTQVTVSS	low polyreactivity
QVQLVESGGGLVQAGGSHRLSCAASGRIFYRYVMGWYRQAPGKERELVAAISRGGGTNYADSVKGRFTISRDNAKNTVYLQMNSLKPEDTAVYYCAARGSPGAGYYWGQGTQVTVSS	high polyreactivity
QVQLVESGGGLLQAGGSLRLSCAASGFIFVDNAMGWYRQAPGKERELVAAITSGASTYYADSVKGRFTISRDNAKNTVYLQMNSLKPEDTAVYYCAADYLYYYTWYNYWGQGTQVTVSS	low polyreactivity
QVQLVESGGGLVQAGGSLRLSCDASGSTFKNYAMGWYRQAPGKERELVAGINWYGGRTYYADSVKGRFTISRDNAKNTVFLQMNSLKPEDTAVYYCAAALPGYGDYYYWGQGTQVTVSS	high polyreactivity
QVQLVESGGGLVQAGGSLRLSCAAMGWYRPAPGKERELVATITWSGGSTYYADSVKGRFTISRDNAKNTVYLQMNSLKPEDNAVYYCNARATLLSPANTIRGYDYWGQGTQVTVSS	low polyreactivity
QVQVVESGGGLVQAGGSLRLSCAASGFIFWEYAMGWYRQAAVKECELVSAISTSGGSTYYADSVKGRFTISRDNAMNSVYLQKNCLKQEDTAVYYCATDVYSGPLLKYDYWGQGTKVTVSS	low polyreactivity
QVQLVESGGGLVQAGGSLRLSCAASGSTFDHYAMGWYRQAPGKERELVAAITRSGGSTYYADSVKGRFTISRDNAKNTVYLQMNSLKPEDTAVYYCNARRWITSDYWGQGTQVTVSS	high polyreactivity
QVQLVESGGGLVHAGCSLRLSCAASGNIFYAYAMGWYRQAPGKERELVAAISWSGDSTYYADSVKGRFTISRDNAKNTVYLQMNSLKPEDTAVYYCAARKVTYHYQWMDYWGQGSQVTVSS	low polyreactivity
QVQLVESGGGLVQAGGSLRLSCAASGITFYFNAMGWYRQAPGKERELVAANTSGGGSTYYADSVKGRFTISRDNAKNTVYLQRNSLKPEDTAVYYCAAEWSYGGMDYWGQGTQVTVSS	low polyreactivity
QVQLVESGGGLVQAGGSLRLSCATSGSIFPTYAMGSYRQAPGKERELVAAISAIVGGTYYADSVKGRFTISRDNAKNTVYLQMNSLKPEDTAVYYCNKTKFQGYDYWGQGTQVTVSS	low polyreactivity
QVQLVESGGGLVQAGGSLRLSCAASGRIFNYYAMGWYRQAPGKERELVARITVGGRTYYADSVKGRFTISRDNAKNTVYLQMNSLKPEDTAVYYCAAVFPYHFGNMDYWGQGTQVTVSS	high polyreactivity
QVQLVESGGGLVQAGGSLRLSCAASGLIFGGNAMGWYRQAPGKERELVAAISRSTGRTYYADSVKGRFTISRDNAKNTVYLQMNSLKPEDTAVYYCNAVGYAFPSYDSWGQGTQVTVSS	high polyreactivity
QVQLVESGGGLVQAGGSLRLSCAASGSIFTRNAMGWYRQAPGKERELVATIRKNGASTTYADSVKGRFTISRDNAKNTVYLQMNSLKPEDTAVSYCARDHHTKYNYWGQGTQVTVSS	low polyreactivity
QVQLVESGGGLVQAGGSLRLSCAASGSTFGPYAMGWYRQAPGKEVELVAAITASVGSTYYAESVKGRFTISRDNAKNTVYLQMNSLKPEDTAVYYCNADLSYFFGPYWGLYGLDYWGQGTQVTVSS	low polyreactivity
QVQLVESGGGLVQAGGSRRLSCAASGRTSTYYAMGWYRQAPGKERELVAVITRGGSTYYADSVKGRFTISRDNAKNTVYLQMNSLKPEDTAVSYCNADGRVQRKYDYWGQGTQVTVSS	high polyreactivity
QVQLVESGGGLVQAGGSLRLSCAACGSTFFRNAMGWYRQAPGKERELVAAISKSGTSTYYADSVKGRFTISRDNAKNTVYLQMNSLKPEDTAVYYCAADSRYPWRGDYWGQGTQVTVSS	high polyreactivity
QVQLVESGGGLVQAGGSLRLSCAASDAMGWYRQAPGKERELVASISNGVSTNYADSVKGRFTISRDNAKNTVYLQMNSLKPEDTAVYYCAADAKTVGRDDLYWYEVEFDYWGQGTQVTVSS	low polyreactivity
QVQLVESGGGLVQAGGSLRLSCAASGFTFSTYAMGWYRQAPGKERECVAAISSGGTTNYADSVKGRFTISRDNAKNTVYLQMNSLKPEDSAVYYCAADWYRYYEYGAYGYWGQGTQVTLSS	low polyreactivity
QVQLVESGGGLVQAGGSLRLSCAASGRIFPENAMGWYRQAPGTERELVAAISKNGGRTYYADSVKGRFTISRDNAKNTVYLQMNSLKPEDTAVYYCNRRVQARRYRYDYWGQGTQVTVSS	high polyreactivity
QVQLVESGGGLVQAGGSLRLSCAASGRTFGIKAMGWYRQAHGKERELVAVISFGDGGTYYADSVKGRFTISRDNAKNTVYLQMNSLKPEDTAVYYCATDYQSTSVWGGHFVINPYDYWGQGTQVTLSS	low polyreactivity
QVQLVESGGGLVQAGGSLRLSCAASGSTYGGNAMGWYRQAPGKERELVAAISRSGSRTYYADSVKGRFTISRDNAKNTVYLQMNSLKPEDTAVYYCAARRWVWTVRYNYWGQGTQVTVSS	high polyreactivity
QVQLVESGGGLVQAGGSLRLSCAASGRIFYHYAMGWYRQAPGTERELVAAINSSGGSTHYADSVKGRFTISRDNAKNTVYLQMNSLKPVDTAVYYCAADGYWRDYSGYWDYYYIYDYWGQGTQVTVSS	low polyreactivity

Sequence	polyreactivity (PSR sort gate)
QVQLVESGGGLVQAGGSLRLSCAASGRIFQKYAMGWYRQAPGKERELGAAISSGDSTYADSVKGRFTISRDNAKNTVYLQMNSLKPEDTAVYYCAVDLYDPWWYSYIGEYEYWGQGTQVTVSS	low polyreactivity
QVQLVESGGGLVQAGGSLRIICAASGRIFSKYARGWYRQAPGKERELVAAISSRGGNTYYADSVKGRFTISRDNAKNTVYLQMTSLKPEDTAVYFCAAGYYYTGYEYDYWGQGTQVTVSS	high polyreactivity
QVQLVESGGGLVQAGGSLRLSCAASGRTFYNYAMGWYRQAPGKERELVAAITRGGSTYYADSVKGRFTISRDNAQNTVYLQMNSLKPEDTAVYYCNAKYIKGRDWGQGTQVTVSS	high polyreactivity
QVQLVESGGGLVQAGGSLRLSCAASGFTIVPYAMGWYRQAPGKERELVAAITSGGSTYYADSVKGRFTISRDNAKNTVYLQMNSLKPEDTAVYYCNRGRYRRRYTYSQYDYWGQGTQVTVSS	high polyreactivity
QVQLVESGGGLVQAGGSLRLSCAASGIIYAYYAMGWYRLAPGKEREWVAGISSSGITNYADSVKGRFTISRDNAKNTVYLQMNSLKPEDTAVYSCATDWYYWRHFYWVRRGVRYYYWGQGTQVTVSS	high polyreactivity
QVQLVESGGGLVQAGGSLRLSCAASGFIFGHNTMVWYRQAPGKERELVAAITRSGGRTYYADSVKGRFTISRDNAKNTVYLQMNSLKPEDTAVYYCNAYPTRPADGDYDYWGQGTQVTVSS	high polyreactivity
QVQLVESGGGLVQAGGSLRLSCAASGITLKRYAMGWYRQAPGTERELVAAITTSGGSTYYADSVKGRFTISRDTAKNTVYLQMNSLKPEDTAVYYCNAEDYWGKYYYWGQGTQVTVSS	low polyreactivity
QVQLQESGGGLVQEGGSLRLSCAASGSIFKVVHMGLYRQAPAKEREFVATIGEGGNTYYADSVKGRFTISRDNAKNTVYLQMNSLKPVDTAVYFYAVVLGTSYRYTYWGQGTQVTVSS	low polyreactivity
QVQLVESGGGLVQAGGSLRLSCAASGIFLVYAMGWYRQAPGKERELVAAIRSDASTNYADSVKGRFTISRDNAKNTVYLQMNILKPEDTAVYYCNTAQLVSDEFDYWGQGTQVTVSS	low polyreactivity
QVQLVESGGGLVQAGGSLRLSCAASGITFVHYAMGWYIQAPGKERELVAAISEDGGSTYYADSVKGRFTISRDNAKNTVYLQMNSLKPEDTAVYYCNTYSGLWPYWRLYDYWGQGTQVTVSS	high polyreactivity
QFQLVESGGGLVQAGGILRLSCAASGLIFQAYTMGWYRQAPGKEREFVAAISKSGGSTYYADSVKGRFTISRDNAKNTVYLQMNSLKPEDTAVYYCAAVDWRRPGYDYWGQGTQVTVSS	high polyreactivity
QVQLVESGGGLFQAGGSLRLSCAASGFTFPHYMGWYRQAPGKERELVAAINVSGGSTSYADSVKGRFSISRDNAKNTVYLQMNSLKPEDTGVYFCAKDLRFRLFSYPSDYWGQGTQVTVSS	low polyreactivity
QVQLVESGGGLVQAGGSLRLSCAASGSILPVYVMGWYRQAPGKERELVAAISSGGSTTYADSVKGRFTISRDNAKNTVYLQMNSLKPEDTAVYYCNADVVRGYSYIYRWPFRYAYDYWGQGTQVTVSS	low polyreactivity
QVQLVESGGGLVQAGGSLRLSCAASGITFPWYAMGWYRQAPGKERELVASKTSGASTNYADSVKGRFTISRDNAKNTVYLQMNSLKPEYSAVYYCARDWYSPVYWAAGYDAWGSGYDYWGQGTQVTVSS	high polyreactivity
QVQLVESGGGLDQAGGSLRLSCAASGSIFGYAMGWYRQAPGKERELVAAIRWGGGSTYYADSVKGRFTISRDNAKKTVYLQMNSLKPEDTAVYYCAARYYRPGVLANYYWGQGTQVTVSS	high polyreactivity
QVQLQESGGGLVQAGGSLLSCAASGTISWVDEMGWYRQAPGNERELVAGIAGGGNTNYADSVKGRFTISRDNAKNTVYLQMNSLDTAVYYCAGWDYTGNVVTGDYWGQGTQVTVSS	high polyreactivity
QVQLVESGGGLVQAGGSLRLSCAASGSIFVDNAMGWYRQAPGIERELVAVITLRSGSTNYADSVKGRFTISRDNAKNTVYLQMNSLKPEDTAVYYCAADDTYHDYQRDTDDDYWGQGTQVTVSS	low polyreactivity
QVQLVESGGGLVQAGGSLRLSCAASGRIFYFYAMGWYRQAPGKERELVAVISYGGDRTSYADSVKGRFTISRDNAKNTVYLQMNSLKPEDTAVYYCAARPFYRGYYYWGQGTQVTVSS	high polyreactivity
QVQLVESGGGLVQAGGSLRLSSSASGSTFWYYVRGRYRQAPGKERELVAAISTRGDSTYYADSVKGRFTISRDNAKNSVYLQINSLKPEDTAVYYCAKSRQSSGRVRFDYWGQGTEVTVSS	low polyreactivity
QVQLVESGGGLVQAGGSLRLSCAASGSIFGGYGMGSYRQAPGKERELVAAITSGSSTYYADSVKGRFTISRDNAKNTVYLQMNSLKPEDTAVYYCAARPYPHSAYEGDYWGRGTQVTVSS	low polyreactivity
QVQLVESGGGLVQAGGSLRLSCPASGFTFGRYGMGWYRQAPGKERELVAGITWSGGSTSYADSVKGRFTISRDNAKNTVYLQMYSLIPEDTAVYYCATRARYTRVHGRRYAYDYWGQGTQVTVSS	high polyreactivity
